Measurements reported in US20190170753A1 (ICAHN SCHOOL OF MEDICINE AT MOUNT SINAI, published 2019).
Where no end group is shown, it is not given here.

Columns and labels:
[1] = target: T1, WT1STHV biotin labeled HCV core peptide (hepatitis C virus, biotin labeled (position not given)); assay: capture EIA; Ab 3.906 ng/mL; bt-peptide 500 ng/mL
T1 peptide: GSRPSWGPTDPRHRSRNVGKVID

[2] = target: T2, Mut6T110S biotin labeled HCV core peptide (hepatitis C virus, biotin labeled (position not given)); assay: capture EIA; Ab 3.906 ng/mL; bt-peptide 500 ng/mL
[3] = target: T3, 92-133 biotin labeled HCV core peptide (hepatitis C virus, UniProt Q9WMX2 92-133, chain 1: biotin label (bt-pep). Its position and any spacer are not visible in the passages shown.); assay: capture EIA; Ab 3.906 ng/mL; bt-peptide 500 ng/mL
T3 construct: Only the label 92-133 is printed
T3 peptide: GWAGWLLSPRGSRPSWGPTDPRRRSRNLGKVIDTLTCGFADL
Method: (§1) Assay wells were coated with sheep anti-mouse IgG Fc specific antibody and incubated overnight. The coating solution was then removed; the wells blocked using BSA/tween in PBS and then washed with dH2O. […] Next, biotin labeled peptides (diluted to 500 ng/mL in block) were added, the plates incubated for 10 minutes while shaking at 700 rpm and then washed. Peroxidase conjugated streptavidin (diluted to 200 ng/mL in block) was then added to all assay wells, incubated for 20 minutes while shaking at 700 rpm and then washed. Finally, color was developed using OPD and signal quenched using 1N H₂SO₄. Signal was read at 492 nm.

[4] = target: T4, C113T109N biotin labeled HCV core peptide (hepatitis C virus, also: biotin labeled, position not given here); assay: capture EIA; Ab 3.906 ng/mL; bt-peptide 500 ng/mL
T4 construct: also called C113T110N
T4 peptide: RGSRPSWGPND

[5] = target: T5, Mut1T110N biotin labeled HCV core peptide (hepatitis C virus, biotin labeled (position not given)); assay: capture EIA; Ab 3.906 ng/mL; bt-peptide 500 ng/mL
T5 peptide: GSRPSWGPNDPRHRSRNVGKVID

[6] = target: T6, C113WT biotin labeled HCV core peptide (hepatitis C virus, also: biotin labeled, position not given here); assay: capture EIA; Ab 3.906 ng/mL; bt-peptide 500 ng/mL
T6 peptide: RGSRPSWGPTD

[7] = target: T1, WT1STHV biotin labeled HCV core peptide; assay: capture EIA; Ab 7.813 ng/mL; bt-peptide 500 ng/mL
Method: as §1

[8] = target: T2, Mut6T110S biotin labeled HCV core …; assay: capture EIA; Ab 7.813 ng/mL; bt-peptide 500 ng/mL
Method: as §1

[9] = target: T3, 92-133 biotin labeled HCV core peptide; assay: capture EIA; Ab 7.813 ng/mL; bt-peptide 500 ng/mL
Method: as §1

[10] = target: T4, C113T109N biotin labeled HCV core …; assay: capture EIA; Ab 7.813 ng/mL; bt-peptide 500 ng/mL
Method: as §1

[11] = target: T5, Mut1T110N biotin labeled HCV core …; assay: capture EIA; Ab 7.813 ng/mL; bt-peptide 500 ng/mL
Method: as §1

[12] = target: T6, C113WT biotin labeled HCV core peptide; assay: capture EIA; Ab 7.813 ng/mL; bt-peptide 500 ng/mL
Method: as §1

[13] = target: HCV core peptide 70 (hepatitis C virus, N-terminal biotin; C-terminal amide); assay: peptide EIA, 2 ug/mL IgG;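 further: purified mouse IgG binding to individually well-coated synthetic peptides, detected with peroxidase anti-mouse IgG Fc and o-phenylenediamine, IgG incubated at least 1 h at room temperature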
[14] = target: T7, HCV core peptide 83 (hepatitis C virus, N-terminal biotin; C-terminal amide); assay: peptide EIA, 2 ug/mL IgG;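 further: purified mouse IgG binding to individually well-coated synthetic peptides, detected with peroxidase anti-mouse IgG Fc and o-phenylenediamine, IgG incubated at least 1 h at room temperature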
T7 construct: range 165-179

[15] = target: T8, HCV core peptide 42 (hepatitis C virus, N-terminal biotin; C-terminal amide); assay: peptide EIA, 2 ug/mL IgG;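 further: purified mouse IgG binding to individually well-coated synthetic peptides, detected with peroxidase anti-mouse IgG Fc and o-phenylenediamine, IgG incubated at least 1 h at room temperature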
T8 construct: range 83-97

[16] = target: HCV core peptide 73 (hepatitis C virus, N-terminal biotin; C-terminal amide); assay: peptide EIA, 2 ug/mL IgG;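 further: purified mouse IgG binding to individually well-coated synthetic peptides, detected with peroxidase anti-mouse IgG Fc and o-phenylenediamine, IgG incubated at least 1 h at room temperature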
[17] = target: HCV core peptide 59 (hepatitis C virus, N-terminal biotin; C-terminal amide); assay: peptide EIA, 2 ug/mL IgG
[18] = target: T1, WT1STHV biotin labeled HCV core peptide; assay: capture EIA; Ab 125 ng/mL; bt-peptide 500 ng/mL
Method: as §1

[19] = target: T2, Mut6T110S biotin labeled HCV core …; assay: capture EIA; Ab 125 ng/mL; bt-peptide 500 ng/mL
Method: as §1

[20] = target: T3, 92-133 biotin labeled HCV core peptide; assay: capture EIA; Ab 125 ng/mL; bt-peptide 500 ng/mL
Method: as §1

[21] = target: T4, C113T109N biotin labeled HCV core …; assay: capture EIA; Ab 125 ng/mL; bt-peptide 500 ng/mL
Method: as §1

[22] = target: T5, Mut1T110N biotin labeled HCV core …; assay: capture EIA; Ab 125 ng/mL; bt-peptide 500 ng/mL
Method: as §1

[23] = target: T6, C113WT biotin labeled HCV core peptide; assay: capture EIA; Ab 125 ng/mL; bt-peptide 500 ng/mL
Method: as §1

[24] = target: T2, Mut6T110S biotin labeled HCV core …; assay: capture EIA; Ab 15.625 ng/mL; bt-peptide 500 ng/mL
Method: as §1

[25] = target: T3, 92-133 biotin labeled HCV core peptide; assay: capture EIA; Ab 15.625 ng/mL; bt-peptide 500 ng/mL
Method: as §1

[26] = target: T4, C113T109N biotin labeled HCV core …; assay: capture EIA; Ab 15.625 ng/mL; bt-peptide 500 ng/mL
Method: as §1

[27] = target: T6, C113WT biotin labeled HCV core peptide; assay: capture EIA; Ab 15.625 ng/mL; bt-peptide 500 ng/mL
Method: as §1

B1: Neo4 mouse monoclonal antibody (antibody, V domains shown)
VH: QIQLKESGPAVIKPSQSLSLTCIVSGFSITSSVYCWQWIRQPPGKGLEWMGRICYDGSVDYSPSITSRGTISRDTSLNKVFFQLSSVTNEDTAMYYCSRENHIDYYDTTYPSFDVWGAGTTVTVSS
VL: DIVLTQSPASLIVSLGQRATISCRASKSVNEYGYTYMHWYQQKPGLPPKLLIYLASNLDSGVPARFSGSGSGTDFTLNIHPVEEEDAATYYCQHSRELPYTFGGGTKLEIKR
notes: Mouse hybridoma antibody, isotype IgG1, purified with Protein G; also called HCV Neo4
Q: Which results are given for B1?
A: signal at 492 nm [1]: 0.669 A492; signal at 492 nm [2]: 0.0847 A492; signal at 492 nm [3]: 0.217 A492; signal at 492 nm [4]: 0.0717 A492; signal at 492 nm [5]: 0.0719 A492; signal at 492 nm [6]: 0.0694 A492; signal at 492 nm [7]: 1.04 A492; signal at 492 nm [8]: 0.132 A492; signal at 492 nm [9]: 0.45 A492; signal at 492 nm [10]: 0.0751 A492; signal at 492 nm [11]: 0.0729 A492; signal at 492 nm [12]: 0.0731 A492; OD (A492 nm) [13]: 0.04 OD; OD (A492 nm) [14]: 0.05 OD; OD (A492 nm) [15]: 0.04 OD; OD (A492 nm) [16]: 0.04 OD; OD (A492 nm) [17]: 0.05 OD; signal at 492 nm [18]: 1.93 A492; signal at 492 nm [19]: 1.27 A492; signal at 492 nm [20]: 1.31 A492; signal at 492 nm [21]: 0.0858 A492; signal at 492 nm [22]: 0.204 A492; signal at 492 nm [23]: 0.0599 A492; signal at 492 nm [24]: 0.25 A492; signal at 492 nm [25]: 0.806 A492; signal at 492 nm [26]: 0.0736 A492; signal at 492 nm [27]: 0.0697 A492
